What was measured:
Experiment in all cases: ELISA
Conditions in all cases: both partners purified
[1] = biological target: T1, full-length recombinant H1 HA protein (A/California/07/09, H1N1) (Influenza A virus A/California/07/2009 …, UniProt C3W5X2)
T1 construct: source: bought: Protein Sciences Corporation (purified recombinant full-length HA)

[2] = biological target: T2, H1 rHA ectodomain (trimeric HA ectodomain, A/California/07/09, H1N1) (Influenza A virus A/California/07/2009 …, UniProt C3W5X2)
T2 construct: source: bought: International Reagent Resource and Sino Biological (HA ectodomains)

[3] = biological target: recombinant HA1 head protein (rHA1) of H1 HA (A/California/07/09, H1N1) (Influenza A virus A/California/07/2009 …, UniProt C3W5X2)

B1: mouse monoclonal stem antibody C179 (antibody, V domains shown)
VH: EVKLVESGGGLVQPGGSLRLSCGTSGFTLTDDYMTWVRQPPGKALEWLGFIRDRANGYTTEYSASVKGRFTISRDNSQSIVYLQMNTLRVEDSATYYCARPKGYFPYAMDYWGQGTSVIVSS
VL: DIQMTQSPASQSASLGESVTITCLASQTIGTWLAWYQQKPGKSPQLLIYAATSLADGVPSRFSGSGSGTKFSFKISSLQAEDFVSYYCQQLYSTPWTFGGGTRLEIK
notes: source: purified from hybridoma from mouse ascitic fluid
Q: Does B1 bind [1]?
A: binds

Q: Does B1 bind [2]?
A: binds

Q: Does B1 bind [3]?
A: no binding (tested: 0.5 μg/ml)

B2: human monoclonal stem antibody FI6v3 (antibody, V domains shown)
VH: QVQLVESGGGVVQPGRSLRLSCAASGFTFSTYAMHWVRQAPGKGLEWVAVISYDANYKYYADSVKGRFTISRDNSKNTLYLQMNSLRAEDTAVYYCAKDSQLRSLLYFEWLSQGYFDYWGQGTLVTVSS
VL: not shown
notes: also called mAb FI6v3; source: VRC, NIH
Q: Does B2 bind [1]?
A: binds
